The text below walks through data of patent JP2021155343A (dated 2021).

For the experiment, the target named is T1, ヒトeIF5Aタンパクの(44−72番目)のアミノ酸残基から成るペプチド (human, UniProt P63241 44-72).
T1 construct: range 44-72; The peptide was coupled to KLH for immunisation; also called human eIF5A (44-72) peptide
Nature of the experiment: ELISA screening of hybridoma monoclonal antibodies. In general terms: An ELISA detects its analyte on a solid surface through an enzyme-linked reagent.

T1 sequence (P63241 44-72 limits assumed): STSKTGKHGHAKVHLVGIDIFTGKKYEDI

B1: 抗ORAIP抗体(クローン YSP5−45−36) (antibody, V domains shown)
VH: EVKLVESGGGLVQPGGSLRLSCATSGFTFTDYYMSWARQPPGKALEWLGFIRNKANGYTTEYSASVKGRFTISRDNSLGILYLQMNTLRPEDSATYYCARNYYGTSFSWFAYWGQGTLVTVSA
VL: MTQTPLSLSVSLGDQASISCRSSQSIVHFNGNTYLEWYLQKPGQSPKLLIYKVSSRFSGVPDRFSGSGSGTDFTLKISRVEAEDLGVYYCFQGSHVPPTFGGGTKLEIK
notes: Mouse monoclonal antibody from a hybridoma (mouse spleen cells fused with mouse myeloma cells); also called モノクローナル抗体(クローン YSP5−45−36); clone YSP5-45-36
On to B1, for which the binding result is on record as “binds”.
